Test results: US20230136331A1 (ILDONG PHARMACEUTICAL, published 2023)

Target: T1, human TIGIT (human, UniProt Q495A1 22-141)
T1 construct: also called hTIGIT
T1 sequence (looked up): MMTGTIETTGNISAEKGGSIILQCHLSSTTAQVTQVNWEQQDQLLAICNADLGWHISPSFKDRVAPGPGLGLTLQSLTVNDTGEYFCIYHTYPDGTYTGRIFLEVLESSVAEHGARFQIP
Experiment: SPR, captured by anti-human Fc, hTIGIT analyte
Source text: The sensorgrams for reference channel Fc1 and buffer channel were subtracted from the test sensorgrams.

Kd: 0.0595 nM
B1: Tiragolumab (antibody, human IgG1, kappa, V domains shown)
VH: EVQLQQSGPGLVKPSQTLSLTCAISGDSVSSNSAAWNWIRQSPSRGLEWLGKTYYRFKWYSDYAVSVKGRITINPDTSKNQFSLQLNSVTPEDTAVFYCTRESTTYDLLAGPFDYWGQGTLVTVSS
VL: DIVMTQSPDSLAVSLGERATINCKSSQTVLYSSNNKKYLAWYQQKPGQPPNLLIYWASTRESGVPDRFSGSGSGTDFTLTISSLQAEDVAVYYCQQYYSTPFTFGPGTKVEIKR
notes: also called anti-TIGIT antibody; control antibody
